Measurements reported in patent publication US20090221680, “Aptamers that bind thrombin with high affinity” (published 2009).

B1: AMX(453)_A9 (ssDNA)
DNA: ATCCCAATGTTGAGACGAGTAGGTGTGGGTAGGGTGGCTGAGGATCGATC
B2: AMX(453)_B10 (ssDNA)
DNA: TCCCATCGATCTGGGGTAGTTTTATTGGGTCGGGTGGCTGAGGATCGATC
B3: AMX(453)_C10 (ssDNA)
DNA: TCCTGATTGATCTGAGGGGTATTGTTGGCGTGGGTGGCTGAGGATCGATC
B4: AMX(453)_F7 (ssDNA)
DNA: TCCCGAGCGATACTGTCTAGGTTGGGTAGGGTGGTGGCTGAGGATCGATC
B5: AMX(453)_F11 (ssDNA)
DNA: TCCCGAGCGATATTGTCTAGGTTGGGTAGGGTGGTGGCTGAGGATCGATC
B6: AMX(453)_G5 (ssDNA)
DNA: TCCCATGATCGTTAGATTCAGGGATGGTGTGGGTGGCTGAGGATCGATC
B7: AMX(454)_B9 (ssDNA)
DNA: CCCGACTGATTCTTACCTTAGGGATGGTGTGGGTGGCTGAGGATCGATC
B8: AMX(454)_B12 (ssDNA)
DNA: TCCCTGGTTTCGATCTGTTTTGGTTGGTCTGGGTGGCTGAGGATCGATC
B9: AMX(454)_D11 (ssDNA)
DNA: TCCCTGCTTGTCGATATTTTAGGGTTGGTGTGGGTGGCTGAGGATCGATC
B10: AMX(454)_F9 (ssDNA)
DNA: TCCCTGCATCGAGCCTCTATGGGATGGTTTGGGTGGCTGAGGATCGATC
B11: AMX(454)_H3 (ssDNA)
DNA: TCCCATCGATCTGGGGTAGTTTTATTGGGTTGGGTGGCTGAGGATCGATC
B12: AMX(398)_C10 (ssDNA)
DNA: TCCCGAGCGATACTGCCTAGGCTGGGTAGGGTGGTGGCTGAGGATCGATC
B13: AMX(395)_A11 (ssDNA)
DNA: TCCCGTAATCGAGCCTGGTATTGTTGGCCTGGGTGGCTGAGGATCGATC
B14: AMX(395)_B5 (ssDNA)
DNA: TCCCGCAATCGGTACTCAGGAGGATGGTTGGGGTGGCTGAGGATCGATC
B15: AMX(395)_D5 (ssDNA)
DNA: TCCCGAGTGTCATATCATCAGAGGTTGGAGTGGGTGGCTGAGGATCGATC
B16: AMX(395)_E2 (ssDNA)
DNA: TCCTATCGATACGGGGTCTTCTATTGGGTCGGGGTGGCTGAGGATCGATC
B17: AMX(395)_E4 (ssDNA)
DNA: TCCCGACTTCGATTACTCAGGGGTGGCTGTGGGTGGCTGAGGATCGATC
B18: AMX(395)_E7 (ssDNA)
DNA: TCCCGGTCGAGTCCTCACGAAGGGTTGGGAGGGTGGCTGAGGATCGATC
B19: AMX(395)_E8 (ssDNA)
DNA: TCCCATGATCGTCAGATTCAGGGATGGTGTGGGTGGCTGAGGATCGATC
B20: AMX(395)_E11 (ssDNA)
DNA: TCCCGGTCGTATTAGTGTGGGTGGTGTAGGGTGGTGGCTGAGGATCGATC
B21: AMX(395)_F3 (ssDNA)
DNA: TCCCATAGTATCGAGCCGATTGGATGGTCTGGGTGGCTGAGGATCGATC
B22: AMX(395)_G2 (ssDNA)
DNA: TCCCACGGTCCTCACCTAGGATGGTTAGGGTGGTGGCTGAGGATCGATC
B23: AMX(395)_G11 (ssDNA)
DNA: TCCCAGAGCGGAAATCCTCAGGGGTGGGGTGGGTGGCTGAGGATCGATC
B24: AMX(395)_H9 (ssDNA)
DNA: TCCCGGTAGCGATCCAGAGAGGGATGGGGTGGGTGGCTGAGGATCGATC
B25: ARC2169.1 (ssDNA)
DNA: ACTGCCTAGGATGGGTAGGGTGGTGGCAGT
B26: ARC2169.2 (ssDNA)
DNA: ACTGCCTAGGGTGGGTAGGGTGGTGGCAGT
B27: ARC2169.4 (ssDNA)
DNA: ACTGCCTAGGTTGGGTAGGATGGTGGCAGT
B28: ARC2169.6 (ssDNA)
DNA: ACTGCATAGGTTGGGTAGGGTGGTTGCAGT
B29: ARC2169.7 (ssDNA)
DNA: ACTGCATAGGTTGGGTAGGGTGGTGGCAGT
B30: ARC2169.8 (ssDNA)
DNA: ACTGCATAGGTTGGGTAGGGTGGTGCAGT
B31: AMX(398)_H5 (ssDNA)
DNA: TCCCATCTTCTGTAGCCTAGGTTGGGTAGGGTGGTGGCTGAGGATCGATC
B32: ARC2188 (ssDNA)
DNA: TTTTTTCCTCAGGGATGGTGTGGGTGGCTGAGG
B33: ARC2189 (ssDNA)
DNA: TTTCCTCAGGGATGGTGTGGGTGGCTGAGGTTT
B34: ARC2190 (ssDNA)
DNA: TTTTTTCCTCAGGGATGGTGTGGGTGGCTGAGGTTTTTT
B35: ARC2191 (ssDNA)
DNA: CTGCCTAGGTTGGGTAGGGTGGTGGCAGTTT
B36: ARC2192 (ssDNA)
DNA: CTGCCTAGGTTGGGTAGGGTGGTGGCAGTTTTTT
B37: ARC2193 (ssDNA)
DNA: TTTCTGCCTAGGTTGGGTAGGGTGGTGGCAG
B38: ARC2194 (ssDNA)
DNA: TTTTTTCTGCCTAGGTTGGGTAGGGTGGTGGCAG
B39: ARC2195 (ssDNA)
DNA: TTTCTGCCTAGGTTGGGTAGGGTGGTGGCAGTTT
B40: ARC2196 (ssDNA)
DNA: TTTTTTCTGCCTAGGTTGGGTAGGGTGGTGGCAGTTTTTT
B41: ARC2178 (ssDNA)
DNA: AACTGCCTAGGTTGGGTAGGGTGGTGGCAGTT
B42: ARC2179 (ssDNA)
DNA: TAACTGCCTAGGTTGGGTAGGGTGGTGGCAGTTA
B43: ARC2180 (ssDNA)
DNA: CTAACTGCCTAGGTTGGGTAGGGTGGTGGCAGTTAG
B44: ARC2181 (ssDNA)
DNA: ACTAACTGCCTAGGTTGGGTAGGGTGGTGGCAGTTAGT
B45: ARC2182 (ssDNA)
DNA: GACTAACTGCCTAGGTTGGGTAGGGTGGTGGCAGTTAGTC
B46: ARC2183 (ssDNA)
DNA: CCTCAGGGTTGGTGTGGTTGGCTGAGG
B47: ARC2184 (ssDNA)
DNA: ACTGCCTAGGTTGGTGTGGTTGGTGGCAGT
B48: ARC2185 (ssDNA)
DNA: CCTCAGGGATGGTGTGGGTGGCTGAGGTTT
B49: ARC2186 (ssDNA)
DNA: CCTCAGGGATGGTGTGGGTGGCTGAGGTTTTTT

Target: T1, thrombin (endogenous, clotting assay in plasma or whole blood) (Homo sapiens, UniProt P00734;P00734 P00734:328-363,P00734:364-622)
Assay: inhibition; PT at 10 uM
Details: not given

**Q.** With B1 as the binder, how does the activity read?
**A.** The activity was 29.3 s.

**Q.** How did the activity turn out when B2 was run?
**A.** Its activity is 24.8 s.

**Q.** With B3 as the binder, how does the activity read?
**A.** Its activity is 104 s.

**Q.** Which activity does the source give for B4 here?
**A.** Its activity is 28.6 s.

**Q.** Which activity does the source give for B5 here?
**A.** Its activity is 65.8 s.

**Q.** With B6 as the binder, how does the activity read?
**A.** The activity was 29.3 s.

**Q.** Which activity does the source give for B7 here?
**A.** Its activity is 32 s.

**Q.** How did the activity turn out when B8 was run?
**A.** The activity was 21.9 s.

**Q.** How did the activity turn out when B9 was run?
**A.** The activity was 43.4 s.

**Q.** For B10, which activity is on record?
**A.** The activity was 25 s.

**Q.** With B11 as the binder, how does the activity read?
**A.** Its activity is 35.4 s.

Target: T2, thrombin (alpha-thrombin) (Homo sapiens, UniProt P00734;P00734 P00734:315-363,P00734:364-622)
Assay: filter; DPBS Ca2+ Mg2+, 0.1 mg/ml BSA
Details: not given

**Q.** For B12, which Kd is on record?
**A.** Its Kd is 3.27 nM.

Target: T2, thrombin (alpha-thrombin)
Assay: filter; 10 nM thrombin
Details: not given

**Q.** Which binding signal does the source give for B13 here?
**A.** The binding signal was 35.8 % bound.

**Q.** Which binding signal does the source give for B14 here?
**A.** Its binding signal is 17.1 % bound.

**Q.** How did the binding signal turn out when B15 was run?
**A.** The binding signal was 13.4 % bound.

**Q.** For B16, which binding signal is on record?
**A.** Its binding signal is 6.51 % bound.

**Q.** B17 was tested. Which binding signal did it give?
**A.** Its binding signal is 24 % bound.

**Q.** How did the binding signal turn out when B18 was run?
**A.** The binding signal was 9.12 % bound.

**Q.** Which binding signal does the source give for B19 here?
**A.** The binding signal was 21.3 % bound.

**Q.** With B20 as the binder, how does the binding signal read?
**A.** Its binding signal is 33.7 % bound.

**Q.** With B21 as the binder, how does the binding signal read?
**A.** Its binding signal is 6.29 % bound.

**Q.** Which binding signal does the source give for B22 here?
**A.** The binding signal was 33.1 % bound.

**Q.** For B23, which binding signal is on record?
**A.** Its binding signal is 21.9 % bound.

**Q.** With B24 as the binder, how does the binding signal read?
**A.** The binding signal was 9.61 % bound.

Target: T1, thrombin (endogenous, clotting assay in …)
Assay: inhibition; PT at 10 uM
Details: not given
Remark: another data set of the same source

**Q.** Which activity does the source give for B25 here?
**A.** The activity was 300 s.

**Q.** How did the activity turn out when B26 was run?
**A.** Its activity is 300 s.

**Q.** Which activity does the source give for B27 here?
**A.** Its activity is 53.8 s.

**Q.** B28 was tested. Which activity did it give?
**A.** The activity was 300 s.

**Q.** How did the activity turn out when B29 was run?
**A.** Its activity is 300 s.

**Q.** Which activity does the source give for B30 here?
**A.** The activity was 28.7 s.

Target: T1, thrombin (endogenous, clotting assay in …)
Assay: inhibition; PT at 10 uM
Details: not given
Remark: another data set of the same source

**Q.** For B12, which activity is on record?
**A.** Its activity is 58.8 s.

**Q.** How did the activity turn out when B31 was run?
**A.** Its activity is 71 s.

Target: prothrombin (Homo sapiens, UniProt P00734 P00734:44-622)
Assay: filter; 50 nM prothrombin
Details: tags: Athens Research
Method in brief: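 Trace 5′-³²P-labeled RNA clones incubated ±50 nM prothrombin with 0.1 mg/ml BSA in 1×DPBS (with Ca²⁺/Mg²⁺), 30 min. Bound RNA captured on nitrocellulose, free RNA on nylon; filters quantified by phosphorimaging. Single-point screen.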

**Q.** For B12, which binding signal is on record?
**A.** Its binding signal is 40.9 % bound.

Target: T1, thrombin (endogenous, clotting assay in …)
Assay: inhibition; ACT at 10 uM aptamer
Details: not given

**Q.** Which activity does the source give for B32 here?
**A.** The activity was 426 s.

**Q.** Which activity does the source give for B33 here?
**A.** Its activity is 410 s.

**Q.** With B34 as the binder, how does the activity read?
**A.** Its activity is 389 s.

**Q.** With B35 as the binder, how does the activity read?
**A.** Its activity is 453 s.

**Q.** Which activity does the source give for B36 here?
**A.** Its activity is 423 s.

**Q.** Which activity does the source give for B37 here?
**A.** The activity was 545 s.

**Q.** Which activity does the source give for B38 here?
**A.** The activity was 462 s.

**Q.** How did the activity turn out when B39 was run?
**A.** Its activity is 438 s.

**Q.** With B40 as the binder, how does the activity read?
**A.** The activity was 441 s.

Target: T1, thrombin (endogenous, clotting assay in …)
Assay: inhibition; ACT at 10 uM
Details: not given

**Q.** Which activity does the source give for B41 here?
**A.** The activity was 429 s.

**Q.** B42 was tested. Which activity did it give?
**A.** The activity was 462 s.

**Q.** For B43, which activity is on record?
**A.** The activity was 516 s.

**Q.** B44 was tested. Which activity did it give?
**A.** The activity was 478 s.

**Q.** Which activity does the source give for B45 here?
**A.** Its activity is 518 s.

**Q.** For B46, which activity is on record?
**A.** The activity was 354 s.

**Q.** B47 was tested. Which activity did it give?
**A.** Its activity is 368 s.

**Q.** How did the activity turn out when B48 was run?
**A.** The activity was 384 s.

**Q.** With B49 as the binder, how does the activity read?
**A.** The activity was 408 s.
